Results: US20210301003A1 (Eli Lilly, published 2021)

Columns and labels:
[1] = target: β-amyloid peptide (1-42) conjugated to BSA (Aβ1-42-Cys-BSA conjugate) (bovine); experiment: competitive ELISA on Aβ1-42-BSA against biotinylated Mu266 (0.3 µg/ml), second set of three experiments
[2] = target: β-amyloid peptide (1-42) conjugated to BSA (Aβ1-42-Cys-BSA conjugate) (bovine); experiment: competitive ELISA on Aβ1-42-BSA against biotinylated Mu266 (0.3 µg/ml), first set of three experiments
[3] = target: Aβ 1-40 peptide (human); experiment: KinExA 3000 equilibrium analysis, 37 C, Fab with serially diluted human soluble Abeta (1-40)
[4] = target: T1, β-amyloid peptide (1-42) conjugated to BSA (Aβ1-42-Cys-BSA conjugate) (bovine, maleimide-activated; Cys43 coupled to maleimide-activated bovine serum albumin); experiment: competitive ELISA on Aβ1-42-BSA against biotinylated Mu266 (0.3 µg/ml), second set of three experiments
T1 construct: Coated on ELISA plates at 10 µg/mL; also called Aβ1-42-BSA conjugate; Aβ1-42-Cys43
Protocol: (§1) The Aβ142-BSA conjugate was prepared by dissolving 7.5 mg of Aβ₁₋₄₂-Cys₄₃ (C-terminal cysteine Aβ₁₋₄₂, AnaSpec) in 500 μL of dimethylsulfoxide, and then immediately adding 1,500 μL of distilled water. Two (2) milligrams of maleimide-activated bovine serum albumin (Pierce) was dissolved in 200 μL of distilled water. The two solutions were combined, thoroughly mixed, and allowed to stand at room temperature for two (2) hours. A gel chromatography column was used to separate unreacted peptide from Aβ₁₋₄₂-Cys-BSA conjugate.
(§2) After washing the wells with phosphate buffered saline (PBS) containing 0.1% Tween 20 (Washing Buffer) using an ELISA plate washer, the wells were blocked by adding 300 μL of SuperBlock reagent (Pierce) per well. After 30 minutes of blocking, the wells were washed Washing Buffer and excess liquid was removed.
(§3) As a background control, 100 μl of ELISA Buffer was added. The ELISA plate was incubated at room temperature for 90 min. After washing the wells with Washing Buffer, 100 μl of 1 μg/ml HRP-conjugated streptavidin (Cat #21124, Pierce) was added to each well. […] Absorbance was read at 415 nm. The absorbances were plotted against the log of the competitor concentration, curves were fit to the data points (using Prism) and the IC50 was determined for each antibody using methods well-known in the art.

[5] = target: T1, β-amyloid peptide (1-42) conjugated to …; experiment: competitive ELISA on Aβ1-42-BSA against biotinylated Mu266 (0.3 µg/ml), first set of three experiments
Protocol: as §1, §2, §3

What does the source list for Mouse monoclonal antibody 266 (Mu266)?
IC50 [1]: 3.87 µg/mL; IC50 [2]: 4.7 µg/mL

For “m266-Fab (Fab fragment of murine monoclonal antibody 266)”, which Kd [3] is on record?
Its Kd is 0.24 nM.

B1: humanized 266 antibody (Hu266) (antibody, human IgG1, kappa, V domains shown)
VH: EVQLVESGGGLVQPGGSLRLSCAASGFTFSRYSMSWVRQAPGKGLELVAQINSVGNSTYYPDTVKGRFTISRDNAKNTLYLQMNSLRAEDTAVYYCASGDYWGQGTLVTVSS
VL: DVVMTQSPLSLPVTLGQPASISCRSSQSLIYSDGNAYLHWFLQKPGQSPRLLIYKVSNRFSGVPDRFSGSGSGTDFTLKISRVEAEDVGVYYCSQSTHVPWTFGQGTKVEIKR
notes: Mature antibody expressed from pVk-Hu266 and pVg1-Hu266 in Sp2/0 cells; also called exemplified anti-Aβ antibody
B1 was tested. Which IC50 [4] did it give?
Its IC50 is 4 µg/mL.

And the IC50 [5]?
The IC50 was 7.5 µg/mL.
